The data set concerns the molecule itself. Briefly: SEC-MALS.

B1: Mycobacterium tuberculosis transcription termination factor Rho, wild type (enzyme)
chain: TDTDLITAGESTDGKPSDAAATDPPDLNADEPAGSLATMVLPELRALANRAGVKGTSGMRKNELIAAIEEIRRQANGAPAVDRSAQEHDKGDRPPSSEAPATQGEQTPTEQIDSQSQQVRPERRSATREAGPSGSGERAGTAADDTDNRQGGQQDAKTEERGTDAGGDQGGDQQASGGQQARGDEDGEARQGRRGRRFRDRRRRGERSGDGAEAELREDDVVQPVAGILDVLDNYAFVRTSGYLPGPHDVYVSMNMVRKNGMRRGDAVTGAVRVPKEGEQPNQRQKFNPLVRLDSINGGSVEDAKKRPEFGKLTPLYPNQRLRLETSTERLTTRVIDLIMPIGKGQRALIVSPPKAGKTTILQDIANAITRNNPECHLMVVLVDERPEEVTDMQRSVKGEVIASTFDRPPSDHTSVAELAIERAKRLVEQGKDVVVLLDSITRLGRAYNNASPASGRILSGGVDSTALYPPKRFLGAARNIEEGGSLTIIATAMVETGSTGDTVIFEEFKGTGNAELKLDRKIAERRVFPAVDVNPSGTRKDELLLSPDEFAIVHKLRRVLSGLDSHQAIDLLMSQLRKTKNNYEFLVQVSKTTPGSMDSD
Regarding B1, the “stoichiometry N” value worked out at 6.
